# Experimental data: patent US20260209359A1 (NEXTERA, published 2026)
# Columns and labels:
# [1] = molecular target: T1, HLA-A*02:01/MAGE-A4^230-239 displayed on cells (MAGE-A4^230-239 pulsed T2 cells; NCI-H1703, A375, THP1, … (human, UniProt P04439 25-365 at identity 0.94); P61769 21-119); experiment: cell-based or functional assay
# [2] = molecular target: T2, HLA-A*02:01/MAGE-A4^230-239, soluble recombinant biotinylated pHLA (human, UniProt P04439 25-299 at identity 0.94); P61769 21-119, biotinylated); experiment: ELISA, soluble biotinylated pHLA on neutravidin, scDb, protL-HRP
# T2 construct: Empty biotinylated HLA-A2 monomers (Tetramer Shop) loaded with synthetic peptide; also called MAGE-A4 pMHC; MAGE-A4-pHLA
# Protocol: ELISA plates were coated with 5 μg/mL NeutrAvidin in PBS and incubated 16 h/4° C. (step (a)) and blocked with 5% skim milk powder in PBST for 1 h/room temperature (RT) (step (c)). […] Bound phage particles were detected with an anti-Fd antibody (anti-M13-HRP (Amersham Biosciences)), whereas bound IgG1 and scDb was detected with HRP conjugated protein L (Genscript) (step (i)). […] Plates were developed with TMB solution and read at 450 nm using a microplate reader (step (k)). Between each layer, the plates were washed 3× with PBST (steps (b), (d), (f), (h), and (j)).
# [3] = molecular target: T1, HLA-A*02:01/MAGE-A4^230-239 displayed …; experiment: cell-based or functional assay; remark: listed apart in the source
Binder,IFNγ EC50 vs. target positive cells (pM) [1] [pM],EC50 [2] [nM],"EC50 vs. NCI-H1703 (pM), T-cell specific killing [3] [pM]"
"AM3 scDb (bispecific antibody, as m68) DIRVTQSPSSLSASVGDRVTITCRADHHIFWYLNWYQQKPGKAPKLLIYAASSLQSGVPSRFSGSGSGTDFTLTISSLQPEDFATYYCQQSYSTPYTFGQGTKLEIKGGGGSEVQLQQSGPELVKPGASMKISCKASGYSFTGYTMNWVKQSHGKNLEWMGLINPYKGVSTYNQKFKDKATLTVDKSSSTAYMELLSLTSEDSAVYYCARSGYYGDSDWYFDVWGAGTTVTVSSGGGGSGGGGSGGGGSDIQMTQTTSSLSASLGDRVTISCRASQDIRNYLNWYQQKPDGTVKLLIYYTSRLHSGVPSKFSGSGSGTDYSLTISNLEQEDIATYFCQQGNTLPWTFAGGTKLEIKGGGGSQVQLVQSGAEVKKPGASVKVSCKVSGYTLTELSMHWVRQAPGKGLEWMGGFDPEDGETIYAQKFQGRVTMTEDTSTDTAYMELSSLRSEDTAVYYCATDQGSSWGFYWGQGTLVTVSS",5.8,0.48,3.4
"AM5 scDb (bispecific antibody, as m68) DIRVTQSPSSLSASVGDRVTITCRASQSISSYLNWYQQKPGKAPKLLIYAASSLQSGVPSRFSGSGSGTDFTLTISSLQPEDFATYYCQQAYRIPYTFGQGTKLEIKGGGGSEVQLQQSGPELVKPGASMKISCKASGYSFTGYTMNWVKQSHGKNLEWMGLINPYKGVSTYNQKFKDKATLTVDKSSSTAYMELLSLTSEDSAVYYCARSGYYGDSDWYFDVWGAGTTVTVSSGGGGSGGGGSGGGGSDIQMTQTTSSLSASLGDRVTISCRASQDIRNYLNWYQQKPDGTVKLLIYYTSRLHSGVPSKFSGSGSGTDYSLTISNLEQEDIATYFCQQGNTLPWTFAGGTKLEIKGGGGSQVQLVQSVAEVKKPGASVKVSCKVSGYTLTELSMHWVRQAPGKGLEWMGGFDPEDGETIYAQKFQGRVTMTEDTSTDTAYMELSSLRSEDTAVYYCAADQGSSWGFYWGQGTLVTVSS",9,1.03,6.4
"AM4 scDb (bispecific antibody, as m68) DIRVTQSPSSLSASVGDRVTITCRADIDIRWYLNWYQQKPGKAPKLLIYAASSLQSGVPSRFSGSGSGTDFTLTISSLQPEDFATYYCQQSYSTPYTFGQGTKLEIKGGGGSEVQLQQSGPELVKPGASMKISCKASGYSFTGYTMNWVKQSHGKNLEWMGLINPYKGVSTYNQKFKDKATLTVDKSSSTAYMELLSLTSEDSAVYYCARSGYYGDSDWYFDVWGAGTTVTVSSGGGGSGGGGSGGGGSDIQMTQTTSSLSASLGDRVTISCRASQDIRNYLNWYQQKPDGTVKLLIYYTSRLHSGVPSKFSGSGSGTDYSLTISNLEQEDIATYFCQQGNTLPWTFAGGTKLEIKGGGGSQVQLVQSGAEVKKPGASVKVSCKVSGYTLTELSMHWVRQAPGKGLEWMGGFDPEDGETIYAQKFQGRVTMTEDTSTDTAYMELSSLRSEDTAVYYCATDQGSSWGFYWGQGTLVTVSS",4.5,0.28,3.1
"AM12 scDb (bispecific antibody, as m68) DIRVTQSPSSLSASVGDRVTITCRASQNIMWYLNWYQQKPGKAPKLLIYAASSLQSGVPSRFSGSGSGTDFTLTISSLQPEDFATYYCQQSYSTPYTFGQGTKLEIKGGGGSEVQLQQSGPELVKPGASMKISCKASGYSFTGYTMNWVKQSHGKNLEWMGLINPYKGVSTYNQKFKDKATLTVDKSSSTAYMELLSLTSEDSAVYYCARSGYYGDSDWYFDVWGAGTTVTVSSGGGGSGGGGSGGGGSDIQMTQTTSSLSASLGDRVTISCRASQDIRNYLNWYQQKPDGTVKLLIYYTSRLHSGVPSKFSGSGSGTDYSLTISNLEQEDIATYFCQQGNTLPWTFAGGTKLEIKGGGGSQVQLVQSGAEVKKPGASVKVSCKVSGYTLTELSMHWVRQAPGKGLEWMGGFDPEQGETIYAQKFQGRVTMTEDTSTDTAYMELSSLRSEDTAVYYCATDQGASWGFYWGQGTLVTVSS",6.4,0.12,4.3
